Results on seven molecules are retold here after patent publication US20230331820A1 (GlaxoSmithKline, published 2023).

Like-named read-outs stand apart in the source and are kept apart here.

For assay [1], the target named is T1, gEgI WT: HSV2 gEgI heterodimer comprising gE and gI wildtype ectodomains (HSV2, UniProt P89475 21-416; P06764 21-256). Description: SPR binning; gEgI captured by mAb 19.
For assay [2], the target named is T1, gEgI WT: HSV2 gEgI heterodimer …. Description: SPR binning; gEgI captured by mAb 17.
For assay [3] the target is unchanged. Description: SPR binning; gEgI captured by mAb 15.
Assay [4] has the same target. The experiment in a line: SPR binning; gEgI captured by mAb 40.
For assay [5] the target is unchanged. The experiment in a line: SPR binning; gEgI captured by mAb 39.
Assay [6] has the same target. The experiment in a line: SPR binning; gEgI captured by mAb 45.
Assay [7] shares this target. The experiment in a line: Biacore SPR, gEgI CHO BMP1181 at 10 µg/ml for 180 s over the mAb. A general note: SPR reads the build-up and loss of mass on a sensor chip optically.
The target is the same in assay [8]. Description: SPR binning; gEgI captured by mAb 34.
The target is the same in assay [9]. The experiment in a line: SPR binning; gEgI captured by mAb 10.
For assay [10] the target is unchanged. The experiment in a line: SPR binning; gEgI captured by mAb 5.
The target is the same in assay [11]. Description: Biacore SPR, gEgI HEK BMP1063 at 10 µg/ml for 180 s over the mAb.
The target is the same in assay [12]. Description: SPR binning; gEgI captured by mAb 9.
Assay [13] has the same target. Description: SPR binning; gEgI captured by mAb 42.
Assay [14] shares this target. The experiment in a line: SPR binning; gEgI captured by mAb 20.
Assay [15] shares this target. The experiment in a line: SPR binning; gEgI captured by mAb 24.
In assay [16] the target is T2, gI WT: HSV2 gI wildtype ectodomain (HSV2, UniProt P06764 21-256). Description: ELISA, supernatant. (In general: ELISA stands for enzyme-linked immunosorbent assay.)
Assay [17] has as its target gEgI mutant (338): HSV2 gEgI mutant heterodimer comprising gE and gI ectodomains with insertion of a (HSV2, UniProt P89475 21-416; P06764 21-256). The experiment in a line: ELISA, supernatant.
In assay [18] the target is gE WT: HSV2 gE wildtype ectodomain (HSV2, UniProt P89475 21-416). Description: ELISA, supernatant.
The target in assay [19] is gEgI mutant (P317R): HSV2 gEgI mutant heterodimer comprising gE and gI ectodomains with mutation P317R in gE (HSV2, UniProt P89475 21-416; P06764 21-256). The experiment in a line: ELISA, supernatant.
In assay [20] the target is gEgI mutant (R320D): HSV2 gEgI mutant heterodimer comprising gE and gI ectodomains with mutation R320D in gE (HSV2, UniProt P89475 21-416; P06764 21-256). Description: ELISA, supernatant.
In assay [21] the target is gEgI mutant (P319D): HSV2 gEgI mutant heterodimer comprising gE and gI ectodomains with mutation P319D in gE (HSV2, UniProt P89475 21-416; P06764 21-256). The experiment in a line: ELISA, supernatant.
In assay [22] the target is T1, gEgI WT: HSV2 gEgI heterodimer …. The experiment in a line: ELISA, supernatant.
The target in assay [23] is T2, gI WT: HSV2 gI wildtype ectodomain. Description: ELISA, supernatant. This is another data set of the same source.

B1: mAb clone 19 (antibody, V domains shown)
VH: QVQLQQSGAELVRPGVSVKISCKGSGYTFTDYAMHWVKQSHAKSLEWIGVISTYYGDARYNQKFKGKATMTVDKSSSTAYMELARLTSEDSAIYYCARRGITVVADYAMDYWGQGTSVTVSS
VL: QIVLTQSPAIMSASPGEKVTMSCSASSSVTYMHWYQQKSGTSPKRWIYDTSKLASGVPARFSGSGSGTSYSLTISSMEAEDAATYYCQQWSSNPPTFGGGTKLEIK
Turning to B1, the RU in assay [1] was -3.4 RU; in assay [2], 18.1 RU; in assay [3], 23 RU; in assay [4], 13.9 RU; in assay [5], 16.2 RU; in [6], 9.2 RU. The RU amounted to 9.3 RU in assay [8]; 24.4 RU in [9]; 17.2 RU in [10]; 6.4 RU in assay [12]; 16.3 RU in assay [13]; 9 RU in [14]. In [15], the RU is 3.2 RU. Besides, the “RU Ag/250 RU mAbs” value in assay [7] stood at 6.49 RU Ag/250 RU mAbs; in [11], 7.88 RU Ag/250 RU mAbs. The figures for the binding result in assay [16], in [17] and in assay [18] were “no binding”, “binds” and “no binding”, respectively.

B2: mAb clone 44 (antibody, V domains shown)
VH: EVQLQQSGPELEKPGASVKISCKASGYSFTGYNMNWVKQSNGKSLEWIGNIDPYYGGIRYNQKFKGKATLTVDKSSSTAYMQLKSLTSEDSAVYYCAREDRYLVHYYAMDYWGQGTSVTVSS
VL: QIVLTQSPAIMSASPGEKVTMTCSASSSISYMHWYQQKPGTSPKRWIYDTSKLASGVPARFSGSGSGTSYSLTISSMEAEDAATYYCHQRSSYPYTFGGGTKLEIK
For the molecule B2, the binding result in [16], in assay [19], in assay [20], in [17], in assay [21] and in [18] was “binds” in each case. For the same molecule, in assay [22], the binding result is reported as “binds”.

B3: mAb clone 14 (antibody, V domains shown)
VH: QVQLQQSGAELMKPGASVKISCKATGYTFSSYWIEWVKQRPGHGLEWIGEILPGSGSTNYNEKFKGKATFTADTSSNTAYMQLSSLTSEDSAVYYCASGSAGNYYGSSYEAMDYWGQGTSVTVSS
VL: DIVLTQSPASLAVSLGQRATISCRASKSVSTSGYSYMHWYQQKPGQPPKLLIYLASNLESGVPARFSGSGSGTDFTLNIHPVEEEDAATYYCQHSRELPLTFGAGTKLELK
notes: also called GEGI/14IIa
Regarding B3, the binding result in [23] is “no binding”; in assay [19], “binds”; in assay [20], “binds”; in assay [17], “binds”; in assay [21], “binds”; in assay [18], “binds”. In addition, in assay [22], the binding result was “binds”.

B4: mAb clone 35, 36 (antibody, V domains shown)
VH: QVQLKESGPGLVAPSQSLSITCTVSGFSLTSYGVHWVRQPPGKGLEWLGVIWAGGSTNYNSALMSRLSISKDNSKSQVFLKMNSLQTDDTAMYYCATDGYKFFYYAMDYWGQGTSVTVSS
VL: DIVMTQAAPSVPVTPGESVSISCRSSKSLLHSNGNTYLYWFLQRPGQSPQLLIYRMSNLASGVPDRFSGSGSGTAFTLRISRVEAEDVGVYYCMQHLEYPFTFGSGTKLEIK
For the molecule B4, the binding result in assay [16], in assay [19], in assay [20], in [17], in [21] and in assay [18] was “binds” throughout. Further, in [22], the binding result was “binds”.

B5: mAb clone 15 (antibody, V domains shown)
VH: QVQLKESGPGLVAPSQSLSITCTVSGFSLTSYGVSWVRQPPGKGLEWLGVIWGDGSTNYHSALISRLSISKDNSKSQVFLKLNSLQTDDTATYYCAKPDLYYDSPYAMDYWGQGTSVTVSS
VL: DIQMTQSPASLSASVGETVTITCRASGNIHNYLAWYQQKQGKSPQLLVYNAKTLADGVPSRFSGSGSGTQYSLKINSLQPEDFGSYYCQHFWSTPWTFGGGTKLEIK
B5: the RU was 7.6 RU in assay [1]; 3.4 RU in [2]; -4.9 RU in assay [3]; 6.9 RU in [4]; 11.7 RU in [5]; 8.7 RU in [6]. For the same molecule, the RU came out at 5.9 RU in assay [8]; 13.4 RU in [9]; 13.5 RU in [10]; 12.7 RU in assay [12]; 9.8 RU in [13]; 13 RU in [14]. Further, the RU in assay [15] came to 9.9 RU. In addition, the results for the “RU Ag/250 RU mAbs” value in [7] and in assay [11] were 30.4 RU Ag/250 RU mAbs and 31.5 RU Ag/250 RU mAbs, respectively. Further, the figures for the binding result in assay [16], in assay [17] and in [18] were “no binding”, “binds” and “no binding”, respectively.

B6: mAb clone 2 (antibody, V domains shown)
VH: QVQLQQSGAELVRPGTSVKVSCKASGYAFTNYLIEWVKQRPGQGLEWIGVINPGSGGTNYNEKFKGKATLTADKSSSTAYMQLSSLTSDDSAVYFCARSRGYPYAMDYWGQGTSVTVSS
VL: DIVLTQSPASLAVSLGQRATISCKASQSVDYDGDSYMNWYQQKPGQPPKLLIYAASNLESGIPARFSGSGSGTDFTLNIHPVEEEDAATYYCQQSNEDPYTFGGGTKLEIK
Turning to B6, the “RU Ag/250 RU mAbs” value in assay [7] was -1.26 RU Ag/250 RU mAbs; in assay [11], 1.24 RU Ag/250 RU mAbs. For the same molecule, the binding result in assay [23] is listed as “binds”; in [17], “binds”; in assay [18], “no binding”.

B7: mAb clone 34 (antibody, V domains shown)
VH: EVKLVESGGGLVQPGGSLKLSCATSGFTFSDYYMYWVRQTPEKRLEWVAYISNGGDSTYYPDTVKGRFTISRDNAKNTLYLQMSRLKSEDTAMYYCARSYYGNPFPYWGQGTLVTVSA
VL: ENVLTQSPAIMSASPGEKVTMTCRASSSVSSSYLHWYQQKSGASPKLWIYSTSNLASGVPARFSGSGSGTSYSLTISSVEAEDAATYYCQQYSGYPLTFGAGTKLELK
For the molecule B7, the RU in [1] is -8.4 RU; in assay [2], -3.3 RU; in assay [3] it was -2.7 RU; in assay [4], -4.1 RU; in [5] it was -1.5 RU; in assay [6] it was -6.3 RU. Besides, the RU in [8] was -11.1 RU; in assay [9], 1.3 RU; in [10], -2.1 RU; in assay [12], -3.9 RU; in [13], -2.4 RU; in assay [14] it was 0.4 RU. In assay [15], this molecule displayed an RU of -3.6 RU. In addition, the results for the “RU Ag/250 RU mAbs” value in assay [7] and in [11] were 12.8 RU Ag/250 RU mAbs and 14.4 RU Ag/250 RU mAbs, respectively. Further, the binding result in [23] is listed as “no binding”; in [17] it was “binds”; in assay [18], “no binding”.
